Source: patent US20100113339A1 (Ablynx, published 2010)

Target: T1, mouse serum albumin (mouse, UniProt P07724 25-608)
T1 construct: also called Mouse albumin
Experiment: SPR Biacore 3000; mouse albumin against human/rhesus albumin as reference

T1 sequence (P07724 25-608 limits assumed): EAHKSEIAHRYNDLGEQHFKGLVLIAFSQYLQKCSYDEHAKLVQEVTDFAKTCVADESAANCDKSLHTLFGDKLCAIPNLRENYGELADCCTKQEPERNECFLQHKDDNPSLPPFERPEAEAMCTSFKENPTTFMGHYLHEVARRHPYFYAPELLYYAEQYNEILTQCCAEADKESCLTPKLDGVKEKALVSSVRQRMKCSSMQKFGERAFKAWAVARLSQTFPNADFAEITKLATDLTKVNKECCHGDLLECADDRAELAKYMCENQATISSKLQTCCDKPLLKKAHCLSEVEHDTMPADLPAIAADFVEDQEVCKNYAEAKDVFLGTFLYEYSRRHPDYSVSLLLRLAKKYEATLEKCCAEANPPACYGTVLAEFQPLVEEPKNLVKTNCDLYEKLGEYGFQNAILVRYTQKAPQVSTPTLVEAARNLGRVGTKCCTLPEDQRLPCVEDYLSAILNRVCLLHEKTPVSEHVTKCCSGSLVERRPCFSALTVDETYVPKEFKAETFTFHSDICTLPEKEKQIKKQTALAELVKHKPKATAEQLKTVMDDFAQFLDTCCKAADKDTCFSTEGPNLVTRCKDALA

- factor of difference in affinity for human/rhesus versus mouse serum albumin: 400 fold
B1: PMP6A8 (ALB2) (VHH)
VHH: AVQLVESGGGLVQGGGSLRLACAASERIFDLNLMGWYRQGPGNERELVATCITVGDSTNYADSVKGRFTISMDYTKQTVYLHMNSLRPEDTGLYYCKIRRTWHSELWGQGTQVTVSS
